Reference: FireProtDB (doi:10.1021/bi9901228)

Settings: Homo sapiens; pH 2.7; Thermal; DSC; glycine 0.05 M; reversible: yes; whole UniProt chain shown

B1: Lysozyme C wild type, P61626 (protein)
chain: MKALIVLGLVLLSVTVQGKVFERCELARTLKRLGMDGYRGISLANWMCLAKWESGYNTRATNYNAGDRSTDYGIFQINSRYWCNDGKTPGAVNACHLSCSALLQDNIADAVACAKRVVRDPQGIRAWVAWRNRCQNRDVRQYVQGCGV
  Tm: 64.9 °C
  heat capacity change of unfolding: 1.58 kcal/mol/K
  unfolding enthalpy (calorimetric): 114 kcal/mol
